T1: D2H receptor domain (human D2H transporter, amino acid residues 387-685), His-tag fusion protein (human, UniProt Q07837 387-685)
T1 construct: purified under denaturing conditions; also called recombinant D2H; not shown: poly-histidine tag (pET vector) at the NH2-terminal end
T1 sequence: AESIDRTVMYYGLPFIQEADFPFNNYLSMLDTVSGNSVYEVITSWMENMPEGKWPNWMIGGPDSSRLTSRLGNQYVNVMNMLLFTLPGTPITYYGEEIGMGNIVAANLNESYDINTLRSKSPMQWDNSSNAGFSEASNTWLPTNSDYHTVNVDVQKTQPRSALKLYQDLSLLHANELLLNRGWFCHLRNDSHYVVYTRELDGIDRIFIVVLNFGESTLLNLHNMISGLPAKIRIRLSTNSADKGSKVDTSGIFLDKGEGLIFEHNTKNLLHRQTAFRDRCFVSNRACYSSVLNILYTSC

B1: DAB30 (peptide)
peptide: SGFWEFSRGLWDGENRKSVRSGCGFRGSSAQGPCPVTPATIDKHAETVESCLAKPHTENSFTNVWKDDKTLDRYANYEGCLWNATGVVVCTGDETQCYGTWVPIGLAIPENEGGGSEGGGSEGGGSEGGGTKPPEYGDTPIPGYTYINPLDGTYPPGTEQNPANPNPSLEESQPLNTFMFQNNRFRNRQGALTVYTGTVTQGTDPVKTYYQYTPVSSKAMYDAYWNGKFRDCAFHSGFNEDPFVCEYQGQSSDLPQPPVNAGGGSGGGSGGGSEGGGSEGGGSEGGGSEGGGSGGGSGSGDFDYEKMANANKGAMTENADENALQSDAKGKLDSVATDYGAAIDGFIGDVSGLANGNGATGDFAGSNSQMAQVGDGDNSPLMNNFRQYLPSLPQSVECRPFVFSAGKPYEFSIDCDKINLFRGVFAFLLYVATFMYVFSTFANILRNKES
notes: Assayed as M13 phage clone displaying the insert
B2: DAX15 (peptide)
peptide: SESGRCRSVSRWMTTWQTQKGGCGSNVSRGSPLDPSHQTGHATTAETVESCLAKPHTENSFTNVWKDDKTLDRYANYEGCLWNATGVVVCTGDETQCYGTWVPIGLAIPENEGGGSEGGGSEGGGSEGGGTKPPEYGDTPIPGYTYINPLDGTYPPGTEQNPANPNPSLEESQPLNTFMFQNNRFRNRQGALTVYTGTVTQGTDPVKTYYQYTPVSSKAMYDAYWNGKFRDCAFHSGFNEDPFVCEYQGQSSDLPQPPVNAGGGSGGGSGGGSEGGGSEGGGSEGGGSEGGGSGGGSGSGDFDYEKMANANKGAMTENADENALQSDAKGKLDSVATDYGAAIDGFIGDVSGLANGNGATGDFAGSNSQMAQVGDGDNSPLMNNFRQYLPSLPQSVECRPFVFSAGKPYEFSIDCDKINLFRGVFAFLLYVATFMYVFSTFANILRNKES
notes: as for B1
B3: DAX24 (peptide)
peptide: RMEDIKNSGWRDSCRWGDLRPGCGSRQWYPSNMRSSRDYPAGGHAETVESCLAKPHTENSFTNVWKDDKTLDRYANYEGCLWNATGVVVCTGDETQCYGTWVPIGLAIPENEGGGSEGGGSEGGGSEGGGTKPPEYGDTPIPGYTYINPLDGTYPPGTEQNPANPNPSLEESQPLNTFMFQNNRFRNRQGALTVYTGTVTQGTDPVKTYYQYTPVSSKAMYDAYWNGKFRDCAFHSGFNEDPFVCEYQGQSSDLPQPPVNAGGGSGGGSGGGSEGGGSEGGGSEGGGSEGGGSGGGSGSGDFDYEKMANANKGAMTENADENALQSDAKGKLDSVATDYGAAIDGFIGDVSGLANGNGATGDFAGSNSQMAQVGDGDNSPLMNNFRQYLPSLPQSVECRPFVFSAGKPYEFSIDCDKINLFRGVFAFLLYVATFMYVFSTFANILRNKES
notes: as for B1
B4: DAB24 (peptide)
peptide: SKWSWSSRWGSPQDKVEKTRAGCGGSPSSTNCHPYTFAPPPQAGAETVESCLAKPHTENSFTNVWKDDKTLDRYANYEGCLWNATGVVVCTGDETQCYGTWVPIGLAIPENEGGGSEGGGSEGGGSEGGGTKPPEYGDTPIPGYTYINPLDGTYPPGTEQNPANPNPSLEESQPLNTFMFQNNRFRNRQGALTVYTGTVTQGTDPVKTYYQYTPVSSKAMYDAYWNGKFRDCAFHSGFNEDPFVCEYQGQSSDLPQPPVNAGGGSGGGSGGGSEGGGSEGGGSEGGGSEGGGSGGGSGSGDFDYEKMANANKGAMTENADENALQSDAKGKLDSVATDYGAAIDGFIGDVSGLANGNGATGDFAGSNSQMAQVGDGDNSPLMNNFRQYLPSLPQSVECRPFVFSAGKPYEFSIDCDKINLFRGVFAFLLYVATFMYVFSTFANILRNKES
notes: as for B1
B5: DAX27 (peptide)
peptide: SHPWYRHWNHGDFSGSGQSRHTPPESPHPGRPNATIAETVESCLAKPHTENSFTNVWKDDKTLDRYANYEGCLWNATGVVVCTGDETQCYGTWVPIGLAIPENEGGGSEGGGSEGGGSEGGGTKPPEYGDTPIPGYTYINPLDGTYPPGTEQNPANPNPSLEESQPLNTFMFQNNRFRNRQGALTVYTGTVTQGTDPVKTYYQYTPVSSKAMYDAYWNGKFRDCAFHSGFNEDPFVCEYQGQSSDLPQPPVNAGGGSGGGSGGGSEGGGSEGGGSEGGGSEGGGSGGGSGSGDFDYEKMANANKGAMTENADENALQSDAKGKLDSVATDYGAAIDGFIGDVSGLANGNGATGDFAGSNSQMAQVGDGDNSPLMNNFRQYLPSLPQSVECRPFVFSAGKPYEFSIDCDKINLFRGVFAFLLYVATFMYVFSTFANILRNKES
notes: as for B1

The binders below were run against T1, D2H receptor domain (human D2H …) (assay: phage ELISA, plate coated with D2H domain).
Experimental: 6.6. Receptor ELISA Procedure 96 well plates were coated overnight with GIT receptor, BSA and, optionally, IDE (insulin degrading enzyme, an irrelevant His-fusion protein)or hTF. The plates were blocked for one hour with 0.5% BSA-PBS. After clarification, the amplified phage were diluted 1:100 in […] plus 0.05% Tween 20 in PBS and added to the plates. Following incubation of the plates on a rotator for 1 to 2 hours, the plates were washed 5 times with 1% BSA plus 0.05% Tween 20 in PBS. […] After the plates were washed 5 times, as described above, TMB substrate was added to the wells. The plates were read at 650 nm absorbance.

Binder	OD [OD]
B1	0.704
B2	0.391
B3	0.591
B4	1.8
B5	1.58

Reference: patent US6703362 (CYTOGEN, dated 2004)
